Paper PMC12299999

Biological target: HA-Foldon (HA1-521 fused at the C-terminus to the bacteriophage T4 fibritin trimerization motif) (influenza A or B virus (strain not stated for this experiment) | bacteriophage T4)
Experiment: native gel or EMSA

HA-Foldon (HA1-521 fused at the C-terminus to the bacteriophage T4 fibritin trimerization motif)
stoichiometry N: 3
